Experimental data reported in the supplement of paper PMC10567573.

B1: SOAT1 (parent)
chain: VYYIFERLCAPLFRNIKQEPFSAR

Variants of: B1
Experiment: protein stability index of a GFP-peptide fusion (GPS, HEK-293T) (PSI 1-6); higher = more stable
Details: c terminus: a fixed tail appended
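Also: lentivirally expressed fusions sorted by FACS into six bins by GFP to DsRed ratio, PSI derived from sequencing read proportions per bin multiplied by bin number.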

Variant	protein stability index
VYYIFERLCAPLFRNTKQEPFSAR	1.58
VYYIFERLCAPLFRNKKQEPFSAR	2.45
VYYIFERLCAPLFRNDKQEPFSAR	3.95
VYYIFERLCAPLFRNIKQQPFSAR	3.17
VYYIFERLCAPLFRNIKQWPFSAR	2.4
VYYIFERLCAPLFRNIKQCPFSAR	3.4
VYYIFERLCAPLFRNIKQEVFSAR	2.6
VYYIFERLCAPLFRNIKQETFSAR	3.49
VYYIFERLCAPLFRNIKQEIFSAR	2.71
VYYIFYRLCAPLFRNIKQEPFSAR	2.53
VYYIFRRLCAPLFRNIKQEPFSAR	2.09
VYYIFFRLCAPLFRNIKQEPFSAR	3.18
VYYIFERLCAPLFINIKQEPFSAR	2.04
VYYIFERLCAPLFKNIKQEPFSAR	2.46
VYYIFERLCAPLFANIKQEPFSAR	3.64
VYYIFERLCAPLFYNIKQEPFSAR	1.87
VYYIFERLCAPLFFNIKQEPFSAR	2.56
VYYIFERLCAPLFNNIKQEPFSAR	2.44
VYYIFERLCAPLFRNIKQEPFSKR	2.41
VYYIFERLCAPLFRNIKQEPFSPR	2.21
VYYIFERLCAPLFRNIKQEPFSYR	3.86
VYAIFERLCAPLFRNIKQEPFSAR	2.26
VYVIFERLCAPLFRNIKQEPFSAR	3.21
VYEIFERLCAPLFRNIKQEPFSAR	1.5

Variant	protein stability index
VYMIFERLCAPLFRNIKQEPFSAR	1.77
VYFIFERLCAPLFRNIKQEPFSAR	2.75
VYIIFERLCAPLFRNIKQEPFSAR	3
VYDIFERLCAPLFRNIKQEPFSAR	1.45
VYQIFERLCAPLFRNIKQEPFSAR	3.86
VYYIFEHLCAPLFRNIKQEPFSAR	2.62
VYYIFEWLCAPLFRNIKQEPFSAR	3.93
VYYIFEYLCAPLFRNIKQEPFSAR	2.98
VYYIFEILCAPLFRNIKQEPFSAR	5.23
VMYIFERLCAPLFRNIKQEPFSAR	2.83
VNYIFERLCAPLFRNIKQEPFSAR	1.76
VCYIFERLCAPLFRNIKQEPFSAR	1.3
VGYIFERLCAPLFRNIKQEPFSAR	1.89
VFYIFERLCAPLFRNIKQEPFSAR	2.86
VEYIFERLCAPLFRNIKQEPFSAR	3.36
VYYIFERLCAPLTRNIKQEPFSAR	4.31
VYYIFERLCAPLHRNIKQEPFSAR	2
VYYIFERLCLPLFRNIKQEPFSAR	3.17
VYYIFERLCAPLFRNIFQEPFSAR	1.74
VYYIFERLCAPLFRNINQEPFSAR	2.87
VYYIFERLCAPLFRNIYQEPFSAR	2.06
VYYIFERLCAPGFRNIKQEPFSAR	2.59
VYYIFERLCAPIFRNIKQEPFSAR	3.19
VYYIFERLCAPHFRNIKQEPFSAR	3.56

Variant	protein stability index
VYYIFERLCAPKFRNIKQEPFSAR	2.57
VYYIFERLCAPFFRNIKQEPFSAR	2.5
VYYIFERLCAPLFRNIKVEPFSAR	1.88
VYYIFERLCAPLFRNIKREPFSAR	2.62
VYYIFERLCAPLFRNIKKEPFSAR	1.37
VYYIFERLCAPLFRNIKCEPFSAR	2.19
VYYIFERLCAPLFRNIKYEPFSAR	3.88
VYYIFERLCAPLFRNIKFEPFSAR	1.28
VYYIFERLCAPLFRNIKGEPFSAR	2.28
CYYIFERLCAPLFRNIKQEPFSAR	1.17
RYYIFERLCAPLFRNIKQEPFSAR	2.24
KYYIFERLCAPLFRNIKQEPFSAR	1.55
PYYIFERLCAPLFRNIKQEPFSAR	1.32
FYYIFERLCAPLFRNIKQEPFSAR	2.17
SYYIFERLCAPLFRNIKQEPFSAR	2.13
VYYIIERLCAPLFRNIKQEPFSAR	1.64
VYYIPERLCAPLFRNIKQEPFSAR	2.6
VYYICERLCAPLFRNIKQEPFSAR	2.46
VYYIRERLCAPLFRNIKQEPFSAR	2.8
VYYIFERLCAFLFRNIKQEPFSAR	1.83
VYYIFERLCAHLFRNIKQEPFSAR	3.92
VYYIFERLCAKLFRNIKQEPFSAR	3.65
VYYIFERLCAPLFRNIKQEPTSAR	2.7
VYYIFERLCAPLFRNIKQEPRSAR	2.74

Variant	protein stability index
VYYIFERLCAPLFRNIKQEPYSAR	2.9
VYYIFERLCAPLFRNIKQEPHSAR	1.59
VYYIFERLCAPLFRNIKQEPWSAR	3.02
VYYIFERLCAPLFRNIKQEPMSAR	2.64
VYYWFERLCAPLFRNIKQEPFSAR	1.94
VYYKFERLCAPLFRNIKQEPFSAR	2.81
VYYRFERLCAPLFRNIKQEPFSAR	3.07
VYYQFERLCAPLFRNIKQEPFSAR	2.65
VYYIFERLCAPLFRNIKQEPFSAY	1.88
VYYIFERLCAPLFRNIKQEPFSAA	2.27
VYYIFERLCAPLFRNIKQEPFSAH	2.48
VYYIFERLGAPLFRNIKQEPFSAR	3.15
VYYIFERLHAPLFRNIKQEPFSAR	2.02
VYYIFERLRAPLFRNIKQEPFSAR	3.16
VYYIFERLPAPLFRNIKQEPFSAR	3.02
VYYIFERPCAPLFRNIKQEPFSAR	2.29
VYYIFERRCAPLFRNIKQEPFSAR	2.86
VYYIFERCCAPLFRNIKQEPFSAR	1.64
VYYIFERLCAPLFRNIKQEPFTAR	2.36
VYYIFERLCAPLFRKIKQEPFSAR	2.84
VYYIFERLCAPLFRMIKQEPFSAR	2.01
VYYIFERLCAPLFRGIKQEPFSAR	1.65
